Numbered stars: 1 amine (or outer) side, 2 acyl side, 3 side chain; on linkers, the order of the positions; unused ones are H or OH. Square brackets hold non-standard residues; d marks the D form. Ends that are not written are not given here. Peptide text beside a SMILES is read from it. X1 = CC(=O)N[C@H]1[C@H](O[C@H]2[C@H](O)[C@@H](O)[C@H](O[C@H]3[C@@H](O)[C@@H](CO)O[C@@H](O[C@H]4[C@@H](O)[C@@H](CO)O[C@@H](O[C@@H]5CO[C@@H](OC[C@H](N[*:1])C(=O)[*:2])[C@H](O)[C@H]5O)[C@@H]4O)[C@@H]3O)O[C@@H]2C(=O)O)O[C@H](CO)[C@H](OS(=O)(=O)O)[C@@H]1O[C@@H]1O[C@H](C(=O)O)[C@@H](O[C@@H]2O[C@H](CO)[C@H](OS(=O)(=O)O)[C@H](O[C@@H]3O[C@H](C(=O)O)[C@@H](O[C@@H]4O[C@H](CO)[C@H](O)[C@H](O[C@@H]5O[C@H](C(=O)O)[C@@H](O)[C@H](O)[C@H]5O)[C@H]4NC(C)=O)[C@H](O)[C@H]3O)[C@H]2NC(C)=O)[C@H](O)[C@H]1O
Columns and labels:
[1] = molecular target: T1, Human Neutrophil Cathepsin G (Homo sapiens, UniProt P08311); test: BLI (biolayer interferometry) binding assay of immobilized biotinylated compounds with Cathepsin G; conditions: biotinylated compounds immobilized on streptavidin sensors, Cathepsin G at 2000, 1000, 500, 250 nM in PBS containing 0.005% P20, read-out: KD (nM) with Cathepsin G
T1 construct: Human Neutrophil Cathepsin G was purchased from Athens; purchased Athens Research & Technology, Inc. (Athens, Georgia)
T1 sequence (P08311 21-243 limits assumed): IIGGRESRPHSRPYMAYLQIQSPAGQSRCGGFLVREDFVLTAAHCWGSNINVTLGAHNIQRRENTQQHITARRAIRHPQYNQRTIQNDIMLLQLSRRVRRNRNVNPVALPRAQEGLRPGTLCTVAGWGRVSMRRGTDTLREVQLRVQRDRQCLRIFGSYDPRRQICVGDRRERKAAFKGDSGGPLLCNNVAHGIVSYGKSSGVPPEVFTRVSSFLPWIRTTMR
Text: With structurally defined glycopeptides in hand, we aim to better understand the structural features needed for bikunin glycopeptide binding. Cathepsin G (CatG), a neutrophil serine protease, plays a crucial role in regulating various physiological processes, including inflammation, digestion, smooth muscle contraction, and tissue remodeling.[64] While CatG has been reported to interact with CSPG, the structural requirement of CSPG binding has not been established.[25] To measure the binding affinity towards CatG, peptides 5 and glycopeptides 10, 18–21 were biotinylated and immobilized on streptavidin coated sensors for biolayer interferometry (BLI) studies. Biotinylated 50 kDa CS and CS-A were also immobilized on the sensors for comparison. […]
General procedure of glycopeptide biotinylation
To a solution of peptide or glycopeptide in DMSO/H 2O (1/1, 0.1 ml) was added NHS-LC-Biotin (4 equiv.) and diisoproylethylamine (pH ~ 8.5). The reaction was incubated at 37 °C for 2 h. Then the mixture was dried in vacuo and purified by HPLC.
General procedure for BLI binding assay
The binding assay was performed on the Octet K2 System (Pall ForteBio). The biotinylated compounds were incubated with streptavidin (SA) sensors for 2 min. The sensor was then balanced in the assay buffer (PBS containing 0.005% P20) and dipped into Cathepsin G solution in assay buffer at 2000 nM, 1000 nM, 500 nM, 250 nM concentrations.
After 5 min of association, the sensor was brought back to the previous assay buffer for a 5 min dissociation step. At the end of the assay, the sensor was regenerated in 2 M NaCl to remove the bound protein. Each measurement was repeated 3 times on the same sensor. The control assay was performed with another sensor loaded with a 2 mM biotin solution.
Figure S3. Binding of peptide and glycopeptides a) 5, b) 10 , c) 18 , d) 19 , e) 20 , f) 21 , g) commercially available biotinylated 50 kDa CS, and h) 50 kDa CS-A to neutrophil Cathepsin G as measured by BLI ( a-h respectively). The biotinylated compounds (50 nM) were immobilized on streptavidin coated biosensors, and human neutrophil Cathepsin G was captured on biosensors with four concentrations at 2000 nM, 1000 nM, 500 nM, 250 nM.
Fitting curves were shown in red lines. […]

[2] = molecular target: biotinylated non-sulfated chondroitin dodecasaccharide glycopeptide 18 (bikunin); test: BLI; biotinylated peptide or glycopeptides immobilised on streptavidin coated sensors; cathepsin G in solution
[3] = molecular target: biotinylated sulfated 10-mer CS-bearing glycopeptide 20 (bikunin); test: as above
[4] = molecular target: biotinylated sulfated 12-mer CS-bearing glycopeptide 21 (bikunin); test: as above
[5] = molecular target: biotinylated sulfated 8-mer CS-bearing glycopeptide 19 (bikunin); test: as above
[6] = molecular target: biotinylated tetrasaccharide linkage region bearing glycopeptide 10 (bikunin); test: as above

Compound `CC(=O)N[C@H]1[C@H](O[C@H]2[C@H](O)[C@@H](O)[C@H](O[C@H]3[C@@H](O)[C@@H](CO)O[C@@H](O[C@H]4[C@@H](O)[C@@H](CO)O[C@@H](O[C@@H]5CO[C@@H](OC[C@H](NC(=O)CNC(=O)[C@H](CCC(=O)O)NC(=O)[C@H](CCC(=O)O)NC(=O)[C@H](CCC(=O)O)NC(=O)[C@H](CCC(N)=O)NC(=O)[C@@H]6CCCN6C(=O)[C@H](CC(C)C)NC(=O)[C@@H](NC(=O)[C@H](C)N)C(C)C)C(=O)NCC(=O)NCC(=O)NCC(=O)N[C@@H](CCC(N)=O)C(=O)N[C@@H](CC(C)C)C(=O)N[C@H](C(=O)N[C@H](C(=O)N[C@@H](CCC(=O)O)C(=O)N[C@H](C(=O)N[C@H](C(=O)N[C@@H](CCCCN)C(=O)N[C@@H](CCCCN)C(=O)N[C@@H](CCC(=O)O)C(=O)N[C@@H](CC(=O)O)C(=O)N[C@@H](CO)C(=O)O)[C@@H](C)O)C(C)C)[C@@H](C)O)C(C)C)[C@H](O)[C@H]5O)[C@@H]4O)[C@@H]3O)O[C@@H]2C(=O)O)O[C@H](CO)[C@H](OS(=O)(=O)O)[C@@H]1O[C@@H]1O[C@H](C(=O)O)[C@@H](O[C@@H]2O[C@H](CO)[C@H](OS(=O)(=O)O)[C@H](O[C@@H]3O[C@H](C(=O)O)[C@@H](O[C@@H]4O[C@H](CO)[C@H](O)[C@H](O[C@@H]5O[C@H](C(=O)O)[C@@H](O)[C@H](O)[C@H]5O)[C@H]4NC(C)=O)[C@H](O)[C@H]3O)[C@H]2NC(C)=O)[C@H](O)[C@H]1O` [Compound 20] (H-AVLPQEEEG[X1]GGGQLVTEVTKKEDS-OH; N-terminus and C-terminus assumed) has a Kd [1] of 74 ± 7 nM.
Work on `CC(=O)N[C@H]1[C@H](O[C@H]2[C@H](O)[C@@H](O)[C@H](O[C@H]3[C@@H](O)[C@@H](CO)O[C@@H](O[C@H]4[C@@H](O)[C@@H](CO)O[C@@H](O[C@@H]5CO[C@@H](OC[C@H](NC(=O)CNC(=O)[C@H](CCC(=O)O)NC(=O)[C@H](CCC(=O)O)NC(=O)[C@H](CCC(=O)O)NC(=O)[C@H](CCC(N)=O)NC(=O)[C@@H]6CCCN6C(=O)[C@H](CC(C)C)NC(=O)[C@@H](NC(=O)[C@H](C)N)C(C)C)C(=O)NCC(=O)NCC(=O)NCC(=O)N[C@@H](CCC(N)=O)C(=O)N[C@@H](CC(C)C)C(=O)N[C@H](C(=O)N[C@H](C(=O)N[C@@H](CCC(=O)O)C(=O)N[C@H](C(=O)N[C@H](C(=O)N[C@@H](CCCCN)C(=O)N[C@@H](CCCCN)C(=O)N[C@@H](CCC(=O)O)C(=O)N[C@@H](CC(=O)O)C(=O)N[C@@H](CO)C(=O)O)[C@@H](C)O)C(C)C)[C@@H](C)O)C(C)C)[C@H](O)[C@H]5O)[C@@H]4O)[C@@H]3O)O[C@@H]2C(=O)O)O[C@H](CO)[C@H](OS(=O)(=O)O)[C@@H]1O[C@@H]1O[C@H](C(=O)O)[C@@H](O[C@@H]2O[C@H](CO)[C@H](OS(=O)(=O)O)[C@H](O[C@@H]3O[C@H](C(=O)O)[C@@H](O[C@@H]4O[C@H](CO)[C@H](OS(=O)(=O)O)[C@H](O[C@@H]5O[C@H](C(=O)O)[C@@H](O[C@@H]6O[C@H](CO)[C@H](O)[C@H](O[C@@H]7O[C@H](C(=O)O)[C@@H](O)[C@H](O)[C@H]7O)[C@H]6NC(C)=O)[C@H](O)[C@H]5O)[C@H]4NC(C)=O)[C@H](O)[C@H]3O)[C@H]2NC(C)=O)[C@H](O)[C@H]1O` [Compound 21] yielded a Kd [1] of 56 ± 8 nM.
“Cathepsin G (from UniProt P08311 21-244) (enzyme)” gave a Kd [2] of 490 nM, a Kd [3] of 74 nM and a Kd [4] of 56 nM. It also gave a Kd [5] of 49 nM and a Kd [6] of 650 nM.
“H-AVLPQEEEGSGGGQLVTEVTKKEDS [Compound 5]” was tested, and the Kd [1] was 400 ± 40 nM.

From paper PMC11772155, “Solid-Phase-Supported Chemoenzymatic Synthesis and Analysis of Chondroitin Sulfate Proteoglycan Glycopeptides” (Angewandte Chemie (International ed. in English), 2024)
